Experimental findings from article doi:10.1101/2024.03.12.584565 (bioRxiv, 2024) are described below.

For assay [1], the target named is His6-SUMO3-sororin (human, UniProt Q96FF9 1-252). The assay can be described thus: pull-down.
For assay [2], the target named is T1, recombinant human Wapl (human, UniProt Q7Z5K2 1-1190).
T1 sequence: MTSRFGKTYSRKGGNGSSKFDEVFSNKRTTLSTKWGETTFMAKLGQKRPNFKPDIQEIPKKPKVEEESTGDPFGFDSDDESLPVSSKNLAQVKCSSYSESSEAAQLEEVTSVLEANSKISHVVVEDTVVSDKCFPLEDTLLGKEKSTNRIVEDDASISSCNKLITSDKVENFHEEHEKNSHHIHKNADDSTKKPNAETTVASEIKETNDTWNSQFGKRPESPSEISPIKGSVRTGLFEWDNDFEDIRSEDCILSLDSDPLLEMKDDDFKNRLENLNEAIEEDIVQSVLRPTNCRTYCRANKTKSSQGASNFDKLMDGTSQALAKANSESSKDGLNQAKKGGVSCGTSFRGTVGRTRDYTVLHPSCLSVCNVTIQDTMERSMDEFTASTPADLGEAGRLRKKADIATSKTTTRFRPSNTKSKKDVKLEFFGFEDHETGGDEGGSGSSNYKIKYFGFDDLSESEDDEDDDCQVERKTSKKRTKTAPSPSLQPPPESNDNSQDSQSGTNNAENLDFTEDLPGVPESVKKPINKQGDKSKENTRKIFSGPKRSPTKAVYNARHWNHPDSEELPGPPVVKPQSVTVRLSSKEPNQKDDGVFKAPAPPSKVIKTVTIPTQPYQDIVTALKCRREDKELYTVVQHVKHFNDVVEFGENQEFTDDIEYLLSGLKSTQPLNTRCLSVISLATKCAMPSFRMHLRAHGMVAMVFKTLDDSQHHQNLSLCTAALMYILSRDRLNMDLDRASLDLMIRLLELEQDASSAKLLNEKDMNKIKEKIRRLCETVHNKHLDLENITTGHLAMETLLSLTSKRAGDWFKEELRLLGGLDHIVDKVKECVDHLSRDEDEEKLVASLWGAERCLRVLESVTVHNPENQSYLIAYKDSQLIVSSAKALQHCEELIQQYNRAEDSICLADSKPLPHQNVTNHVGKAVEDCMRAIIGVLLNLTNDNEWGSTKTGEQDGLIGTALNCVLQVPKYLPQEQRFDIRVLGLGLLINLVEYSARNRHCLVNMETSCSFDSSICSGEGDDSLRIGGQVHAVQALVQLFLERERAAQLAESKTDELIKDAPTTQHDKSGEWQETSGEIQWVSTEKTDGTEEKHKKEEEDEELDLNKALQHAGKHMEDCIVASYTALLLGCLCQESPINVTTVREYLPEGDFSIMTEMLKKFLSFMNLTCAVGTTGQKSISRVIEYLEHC
The assay can be described thus: pull-down.

His6-SUMO3-sororin, sequence (Q96FF9 whole entry): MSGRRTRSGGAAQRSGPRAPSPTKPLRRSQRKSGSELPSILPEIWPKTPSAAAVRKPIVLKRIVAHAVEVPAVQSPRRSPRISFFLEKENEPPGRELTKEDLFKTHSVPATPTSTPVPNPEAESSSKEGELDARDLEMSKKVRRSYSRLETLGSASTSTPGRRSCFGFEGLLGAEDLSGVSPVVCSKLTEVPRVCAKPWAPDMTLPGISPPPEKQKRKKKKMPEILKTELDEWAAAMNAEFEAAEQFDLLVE

B1: Flag-tagged Pds5b-Ser1177,1182,1209Ala (3A), untreated or exposed to Nek2a (natural protein)
chain: MAHSKTRTNDGKITYPPGVKEISDKISKEEMVRRLKMVVKTFMDMDQDSEEEKELYLNLALHLASDFFLKHPDKDVRLLVACCLADIFRIYAPEAPYTSPDKLKDIFMFITRQLKGLEDTKSPQFNRYFYLLENIAWVKSYNICFELEDSNEIFTQLYRTLFSVINNGHNQKVHMHMVDLMSSIICEGDTVSQELLDTVLVNLVPAHKNLNKQAYDLAKALLKRTAQAIEPYITNFFNQVLMLGKTSISDLSEHVFDLILELYNIDSHLLLSVLPQLEFKLKSNDNEERLQVVKLLAKMFGAKDSELASQNKPLWQCYLGRFNDIHVPIRLECVKFASHCLMNHPDLAKDLTEYLKVRSHDPEEAIRHDVIVSIVTAAKKDILLVNDHLLNFVRERTLDKRWRVRKEAMMGLAQIYKKYALQSAAGKDAAKQIAWIKDKLLHIYYQNSIDDRLLVERIFAQYMVPHNLETTERMKCLYYLYATLDLNAVKALNEMWKCQNLLRHQVKDLLDLIKQPKTDASVKAIFSKVMVITRNLPDPGKAQDFMKKFTQVLEDDEKIRKQLEVLVSPTCSCKQAEGCVREITKKLGNPKQPTNPFLEMIKFLLERIAPVHIDTESISALIKQVNKSIDGTADDEDEGVPTDQAIRAGLELLKVLSFTHPISFHSAETFESLLACLKMDDEKVAEAALQIFKNTGSKIEEDFPHIRSALLPVLHHKSKKGPPRQAKYAIHCIHAIFSSKETQFAQIFEPLHKSLDPSNLEHLITPLVTIGHIALLAPDQFAAPLKSLVATFIVKDLLMNDRLPGKKTTKLWVPDEEVSPETMVKIQAIKMMVRWLLGMKNNHSKSGTSTLRLLTTILHSDGDLTEQGKISKPDMSRLRLAAGSAIVKLAQEPCYHEIITLEQYQLCALAINDECYQVRQVFAQKLHKGLSRLRLPLEYMAICALCAKDPVKERRAHARQCLVKNINVRREYLKQHAAVSEKLLSLLPEYVVPYTIHLLAHDPDYVKVQDIEQLKDVKECLWFVLEILMAKNENNSHAFIRKMVENIKQTKDAQGPDDAKMNEKLYTVCDVAMNIIMSKSTTYSLESPKDPVLPARFFTQPDKNFSNTKNYLPPEMKSFFTPGKPKTTNVLGAVNKPLSSAGKQSQTKSSRMETVSNASSSSNPSSPGRIKGRLDSAEMDHAENEDYTMSSPLPGKKSDKRDDSDLVRAELEKPRGRKKTPVTEQEEKLGMDDLTKLVQEQKPKGSQRSRKRGHTASESDEQQWPEEKRLKEDILENEDEQNSPPKKGKRGRPPKPLGGGTPKEEPTMKTSKKGSKKKSGPPAPEEEEEEERQSGNTEQKSKSKQHRVSRRAQQRAESPESSAIESTQSTPQKGRGRPSKTPSPSQPKKNVRVGRSKQAATKENDSSEEVDVFQGSSPVDDIPQEETEEEEVSTVNVRRRSAKRERR
B1: the binding result in assay [1] is “binds”.

B2: Flag-tagged Pds5b-Ser1177,1182,1209Ala (3A), phosphorylated by Cdk1/2-cyclin A2 in vitro (natural protein)
chain: MAHSKTRTNDGKITYPPGVKEISDKISKEEMVRRLKMVVKTFMDMDQDSEEEKELYLNLALHLASDFFLKHPDKDVRLLVACCLADIFRIYAPEAPYTSPDKLKDIFMFITRQLKGLEDTKSPQFNRYFYLLENIAWVKSYNICFELEDSNEIFTQLYRTLFSVINNGHNQKVHMHMVDLMSSIICEGDTVSQELLDTVLVNLVPAHKNLNKQAYDLAKALLKRTAQAIEPYITNFFNQVLMLGKTSISDLSEHVFDLILELYNIDSHLLLSVLPQLEFKLKSNDNEERLQVVKLLAKMFGAKDSELASQNKPLWQCYLGRFNDIHVPIRLECVKFASHCLMNHPDLAKDLTEYLKVRSHDPEEAIRHDVIVSIVTAAKKDILLVNDHLLNFVRERTLDKRWRVRKEAMMGLAQIYKKYALQSAAGKDAAKQIAWIKDKLLHIYYQNSIDDRLLVERIFAQYMVPHNLETTERMKCLYYLYATLDLNAVKALNEMWKCQNLLRHQVKDLLDLIKQPKTDASVKAIFSKVMVITRNLPDPGKAQDFMKKFTQVLEDDEKIRKQLEVLVSPTCSCKQAEGCVREITKKLGNPKQPTNPFLEMIKFLLERIAPVHIDTESISALIKQVNKSIDGTADDEDEGVPTDQAIRAGLELLKVLSFTHPISFHSAETFESLLACLKMDDEKVAEAALQIFKNTGSKIEEDFPHIRSALLPVLHHKSKKGPPRQAKYAIHCIHAIFSSKETQFAQIFEPLHKSLDPSNLEHLITPLVTIGHIALLAPDQFAAPLKSLVATFIVKDLLMNDRLPGKKTTKLWVPDEEVSPETMVKIQAIKMMVRWLLGMKNNHSKSGTSTLRLLTTILHSDGDLTEQGKISKPDMSRLRLAAGSAIVKLAQEPCYHEIITLEQYQLCALAINDECYQVRQVFAQKLHKGLSRLRLPLEYMAICALCAKDPVKERRAHARQCLVKNINVRREYLKQHAAVSEKLLSLLPEYVVPYTIHLLAHDPDYVKVQDIEQLKDVKECLWFVLEILMAKNENNSHAFIRKMVENIKQTKDAQGPDDAKMNEKLYTVCDVAMNIIMSKSTTYSLESPKDPVLPARFFTQPDKNFSNTKNYLPPEMKSFFTPGKPKTTNVLGAVNKPLSSAGKQSQTKSSRMETVSNASSSSNPSSPGRIKGRLDSAEMDHAENEDYTMSSPLPGKKSDKRDDSDLVRAELEKPRGRKKTPVTEQEEKLGMDDLTKLVQEQKPKGSQRSRKRGHTASESDEQQWPEEKRLKEDILENEDEQNSPPKKGKRGRPPKPLGGGTPKEEPTMKTSKKGSKKKSGPPAPEEEEEEERQSGNTEQKSKSKQHRVSRRAQQRAESPESSAIESTQSTPQKGRGRPSKTPSPSQPKKNVRVGRSKQAATKENDSSEEVDVFQGSSPVDDIPQEETEEEEVSTVNVRRRSAKRERR
For the molecule B2, the binding result in assay [2] was “binds”.

B3: Flag-tagged Pds5b-Ser1161,1166,1177,1182,1209Ala (5A), untreated or exposed to Nek2a and Cdk1/2-cyclin A2 (natural protein)
chain: MAHSKTRTNDGKITYPPGVKEISDKISKEEMVRRLKMVVKTFMDMDQDSEEEKELYLNLALHLASDFFLKHPDKDVRLLVACCLADIFRIYAPEAPYTSPDKLKDIFMFITRQLKGLEDTKSPQFNRYFYLLENIAWVKSYNICFELEDSNEIFTQLYRTLFSVINNGHNQKVHMHMVDLMSSIICEGDTVSQELLDTVLVNLVPAHKNLNKQAYDLAKALLKRTAQAIEPYITNFFNQVLMLGKTSISDLSEHVFDLILELYNIDSHLLLSVLPQLEFKLKSNDNEERLQVVKLLAKMFGAKDSELASQNKPLWQCYLGRFNDIHVPIRLECVKFASHCLMNHPDLAKDLTEYLKVRSHDPEEAIRHDVIVSIVTAAKKDILLVNDHLLNFVRERTLDKRWRVRKEAMMGLAQIYKKYALQSAAGKDAAKQIAWIKDKLLHIYYQNSIDDRLLVERIFAQYMVPHNLETTERMKCLYYLYATLDLNAVKALNEMWKCQNLLRHQVKDLLDLIKQPKTDASVKAIFSKVMVITRNLPDPGKAQDFMKKFTQVLEDDEKIRKQLEVLVSPTCSCKQAEGCVREITKKLGNPKQPTNPFLEMIKFLLERIAPVHIDTESISALIKQVNKSIDGTADDEDEGVPTDQAIRAGLELLKVLSFTHPISFHSAETFESLLACLKMDDEKVAEAALQIFKNTGSKIEEDFPHIRSALLPVLHHKSKKGPPRQAKYAIHCIHAIFSSKETQFAQIFEPLHKSLDPSNLEHLITPLVTIGHIALLAPDQFAAPLKSLVATFIVKDLLMNDRLPGKKTTKLWVPDEEVSPETMVKIQAIKMMVRWLLGMKNNHSKSGTSTLRLLTTILHSDGDLTEQGKISKPDMSRLRLAAGSAIVKLAQEPCYHEIITLEQYQLCALAINDECYQVRQVFAQKLHKGLSRLRLPLEYMAICALCAKDPVKERRAHARQCLVKNINVRREYLKQHAAVSEKLLSLLPEYVVPYTIHLLAHDPDYVKVQDIEQLKDVKECLWFVLEILMAKNENNSHAFIRKMVENIKQTKDAQGPDDAKMNEKLYTVCDVAMNIIMSKSTTYSLESPKDPVLPARFFTQPDKNFSNTKNYLPPEMKSFFTPGKPKTTNVLGAVNKPLSSAGKQSQTKSSRMETVSNASSASNPSAPGRIKGRLDSAEMDHAENEDYTMSSPLPGKKSDKRDDSDLVRAELEKPRGRKKTPVTEQEEKLGMDDLTKLVQEQKPKGSQRSRKRGHTASESDEQQWPEEKRLKEDILENEDEQNSPPKKGKRGRPPKPLGGGTPKEEPTMKTSKKGSKKKSGPPAPEEEEEEERQSGNTEQKSKSKQHRVSRRAQQRAESPESSAIESTQSTPQKGRGRPSKTPSPSQPKKNVRVGRSKQAATKENDSSEEVDVFQGSSPVDDIPQEETEEEEVSTVNVRRRSAKRERR
As to B3, the binding result in assay [1] is “binds”.
